One block for each binder: values may come before it.
Legend:
[1] = molecular target: recombinant human PD-L1 (Sino Biological Inc., catalog number 100 84-H08H) (human, UniProt Q9NZQ7 19-239); test: ELISA; Fig. 8A
[2] = molecular target: T1, human PD-L1-Fc (ACROBiosystems, catalog number PD1-H5258) (human, UniProt Q9NZQ7 19-238); test: competition ELISA; blocking PD-L1/CD80
[3] = molecular target: T1, human PD-L1-Fc (ACROBiosystems, catalog …); test: competition ELISA; blocking PD-L1/PD-1
[4] = molecular target: recombinant human 4-1BB (Sino Biological Inc., catalog number 10041-H08H) (human, UniProt Q07011 24-186); test: ELISA; Fig. 8B
Chain of recombinant human 4-1BB (Sino Biological Inc., catalog number 10041-H08H) (Q07011 24-186): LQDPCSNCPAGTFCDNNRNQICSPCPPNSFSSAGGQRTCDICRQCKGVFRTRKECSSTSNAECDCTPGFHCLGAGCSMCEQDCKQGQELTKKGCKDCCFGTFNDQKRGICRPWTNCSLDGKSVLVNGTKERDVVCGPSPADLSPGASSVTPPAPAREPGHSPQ

[5] = molecular target: 4-1BB on GS-H2/4-1BB cells (purchased from GenScript) (UniProt Q07011 24-255); test: FACS binding; Fig. 8C, GS-H2/4-1BB cells
Chain of 4-1BB on GS-H2/4-1BB cells (purchased from GenScript) (Q07011 24-255): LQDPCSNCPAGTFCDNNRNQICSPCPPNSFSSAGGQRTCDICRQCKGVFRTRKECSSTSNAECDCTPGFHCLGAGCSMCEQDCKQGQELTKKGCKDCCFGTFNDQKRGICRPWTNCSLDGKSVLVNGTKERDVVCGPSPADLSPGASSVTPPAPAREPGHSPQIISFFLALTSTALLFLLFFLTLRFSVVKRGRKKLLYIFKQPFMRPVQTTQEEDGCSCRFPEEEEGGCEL

T1 sequence (Q9NZQ7 19-238): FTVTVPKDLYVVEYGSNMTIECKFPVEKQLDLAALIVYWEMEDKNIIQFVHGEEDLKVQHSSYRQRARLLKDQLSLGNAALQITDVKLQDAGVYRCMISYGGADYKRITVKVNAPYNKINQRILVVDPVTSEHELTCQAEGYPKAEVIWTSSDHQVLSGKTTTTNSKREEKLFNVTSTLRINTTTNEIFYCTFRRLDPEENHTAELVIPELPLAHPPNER
Chain of recombinant human PD-L1 (Sino Biological Inc., catalog number 100 84-H08H) (Q9NZQ7 19-239): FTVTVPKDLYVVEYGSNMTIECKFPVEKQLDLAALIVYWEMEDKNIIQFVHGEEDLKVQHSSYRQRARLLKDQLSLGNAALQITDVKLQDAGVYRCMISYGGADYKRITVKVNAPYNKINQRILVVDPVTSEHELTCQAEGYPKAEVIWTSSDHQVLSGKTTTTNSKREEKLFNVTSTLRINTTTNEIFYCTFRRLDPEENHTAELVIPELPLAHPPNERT

EC50 [1]: 0.102 nM
EC50 [2]: 0.656 nM
EC50 [3]: 0.884 nM
B1: Anti-PD-L1 mAb (antibody, V domains shown)
VH: EVQLVQSGAEVKKPGSSVKVSCKASGFNIEDTYIHWVRQAPGQGLEWMGRIDPANANTKYDPKFQGRVTITADTSTNTAYMELSSLRSEDTAVYYCGRGLGAWFAYWGQGTLVTVSS
VL: DIQMTQSPSSLSASVGDRVTITCKASQDVHTAVAWIQQKPGKSPKLLIYSASNRYTGVPSRFSGSGSGTDFTFTISSLQPEDIATYYCQQHYITPLTFGQGTKLEIK

EC50 [1]: 0.345 nM
EC50 [4]: 4.02 nM
EC50 [2]: 1.72 nM
EC50 [3]: 4.86 nM
EC50 [5]: 0.396 nM
B2: anti-PD-L1/anti-4-1BB heterodimeric antibody BH3120h (bispecific antibody)
heavy 1: not shown
light 1: DIQMTQSPSSLSASVGDRVTITCKASQDVHTAVAWIQQKPGKSPKLLIYSASNRYTGVPSRFSGSGSGTDFTFTISSLQPEDIATYYCQQHYITPLTFGQGTKLEIKRTVAAPSVFIFPPSDEQLKSGTASVVCLLNNFYPREAKVQWKVDNALQSGNSQESVTEQDSKDSTYSLSSTLTLSKADYEKHKVYACEVTHQGLSSPVTKSFNRGEC
heavy 2: QVQLVQSGAEVKKPGSSVKVSCKASGYTFTSYWINWVRQAPGQGLEWMGNIYPSDSYTNYNQKFKDRVTITADKSTSTAYMELSSLRSEDTAVYYCARLYYGSSPFDYWGQGTTVTVSSASTKGPSVFPLAPSSKSTSGGTAALGCLVKDYFPEPVTVSWNSGALTSGVHTFPAVLQSSGLYSLSSVVTVPSSSLGTQTYICNVNHKPSNTKVDKKVEPKSCDKTHTCPPCPAPELLGGPSVFLFPPKPKDTLMISRTPEVTCVVVDVSHEDPEVKFNWYVDGVEVHNAKTKPREEQYASTYRVVSVLTVLHQDWLNGKEYKCKVSNKALPAPIEKTISKAKGQPREPQVYTEPPSRDELTKNQVSLTCLVKGFYPSDIAVEWESNGQPENNYKTTPPVLDSDGSFFLLSVLTVDKSRWQQGNVFSCSVMHEALHNHYTQKSLSLSPGK
light 2: not shown

EC50 [4]: 0.045 nM
EC50 [5]: 1.28 nM
B3: Anti-4-1BB mAb (antibody, V domains shown)
VH: QVQLVQSGAEVKKPGSSVKVSCKASGYTFTSYWINWVRQAPGQGLEWMGNIYPSDSYTNYNQKFKDRVTITADKSTSTAYMELSSLRSEDTAVYYCARLYYGSSPFDYWGQGTTVTVSS
VL: DIQMTQSPSSLSASVGDRVTITCRASQDISNYLNWYQQKPGKVPKLLIYHTSRLHSGVPSRFSGSGSGTDFTLTISSLQPEDVATYYCQQGHTLPRTFGGGTKVEIK

Source: patent publication US20240034801A1 (published 2024)
